Assay results published in patent US20170088624A1 (Janssen / Centocor, published 2017).

Assays:
[1] = biological target: T1, cyno CD40 (SPR analyte) (Macaca fascicularis (cynomolgus), UniProt P25942 21-193 (human entry), limits assumed); assay: SPR ProteOn XPR36, mAb captured by anti-human IgG Fc, cyno CD40 as analyte, 25 C; mean of n = 3 (SD 0.07E-03)
T1 construct: also called cCD40-ECD
T1 chain: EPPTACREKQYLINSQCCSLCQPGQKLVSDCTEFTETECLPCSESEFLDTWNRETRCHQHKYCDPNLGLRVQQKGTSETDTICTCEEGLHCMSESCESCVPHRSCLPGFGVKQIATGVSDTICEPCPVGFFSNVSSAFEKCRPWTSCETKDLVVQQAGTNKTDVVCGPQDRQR
Procedure: (§1) Affinity measurements were performed using Surface Plasmon Resonance (SPR) using a ProteOn XPR36 system (BioRad). […] Approximately 5000 RU (response units) of mAbs were immobilized. The kinetic experiments were performed at 25° C. in running buffer (DPBS+0.01% P20+100 μg/ml BSA). To perform kinetic experiments, 200 RU of mAbs were captured followed by injections of analytes (human or cyno CD40) at 5 concentrations (in a 4-fold serial dilution). The association phase was monitored for 3 minutes at 50 μL/min, then followed by 15 minutes of buffer flow (dissociation phase). The chip surface was regenerated with two 18 second pulses of 100 mM H₃PO₄ (Sigma, Cat#7961) at 100 μL/min.
(§2) The collected data were processed using ProteOn Manager software. First, the data was corrected for background using inter-spots. Then, double reference subtraction of the data was performed by using the buffer injection for analyte injections. The kinetic analysis of the data was performed using a Langmuir 1:1 binding model. The result for each mAb was reported in the format of Ka (On-rate), Kd (Off-rate) and KD (equilibrium dissociation constant).

[2] = biological target: T2, Full length human CD40 (huCD40) on cells (human, UniProt P25942 21-277); assay: flow cytometry, HEK-Blue CD40L cells
T2 construct: CD40 on human mature DCs, human B cells, Raji cells and HEK-Blue CD40L cells (stably expressing human CD40); also called TNFRSF5
Target sequence in this assay (P25942 21-277): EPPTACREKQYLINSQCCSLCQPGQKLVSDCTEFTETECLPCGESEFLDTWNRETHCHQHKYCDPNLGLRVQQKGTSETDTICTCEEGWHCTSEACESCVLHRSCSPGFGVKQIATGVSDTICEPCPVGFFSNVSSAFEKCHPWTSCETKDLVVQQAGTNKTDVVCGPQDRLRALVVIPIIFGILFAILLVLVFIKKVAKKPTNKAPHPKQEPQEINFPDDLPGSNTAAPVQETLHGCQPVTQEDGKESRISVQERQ

[3] = biological target: T2, Full length human CD40 (huCD40) on cells; assay: cell-based or functional assay
[4] = biological target: T2, Full length human CD40 (huCD40) on cells; assay: flow cytometry, HEK-Blue CD40L cells; remark: listed apart in the source
Target sequence in this assay (P25942 21-277): as above

[5] = biological target: T3, Macaca fascicularis (cyno) CD40 (cCD40) on cells (Macaca fascicularis (cynomolgus), UniProt P25942 21-277 (human entry)); assay: flow cytometry, cyno mature DCs
T3 construct: CD40 on cyno mature DCs
T3 chain: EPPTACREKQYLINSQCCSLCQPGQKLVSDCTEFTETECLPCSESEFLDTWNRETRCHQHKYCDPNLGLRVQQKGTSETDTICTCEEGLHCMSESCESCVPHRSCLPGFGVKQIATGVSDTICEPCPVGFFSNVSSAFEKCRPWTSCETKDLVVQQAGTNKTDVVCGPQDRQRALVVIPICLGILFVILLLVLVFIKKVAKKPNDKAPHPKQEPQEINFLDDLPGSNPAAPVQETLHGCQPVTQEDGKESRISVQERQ

[6] = biological target: T2, Full length human CD40 (huCD40) on cells; assay: cell-based or functional assay; remark: listed apart in the source
Target sequence in this assay (P25942 21-277): as the sequence (P25942 21-277) above

[7] = biological target: T4, human CD40 (SPR analyte) (human, UniProt P25942 21-193); assay: SPR ProteOn XPR36, mAb captured by anti-human IgG Fc, CD40 as analyte, 25 C; mean of n = 5 (SD 1.51E-09); did not fit well to 1:1 model
T4 construct: also called huCD40-ECD
Procedure: as §1, §2
(§3) The parameters reported in this table were obtained from a 1:1 Langmuir binding model for all samples. Affinity, KD=kd/ka.

[8] = biological target: T2, Full length human CD40 (huCD40) on cells; assay: flow cytometry, HEK-Blue CD40L cells; separate experiment
[9] = biological target: T1, cyno CD40 (SPR analyte); assay: SPR ProteOn XPR36, mAb captured by anti-human IgG Fc, cyno CD40 as analyte, 25 C; mean of n = 3 (SD 0.24E-09)
Procedure: as §1, §2, §3

[10] = biological target: T2, Full length human CD40 (huCD40) on cells; assay: flow cytometry, human B cells; separate experiment
[11] = biological target: T4, human CD40 (SPR analyte); assay: SPR ProteOn XPR36, mAb captured by anti-human IgG Fc, CD40 as analyte, 25 C; mean of n = 5 (SD 1.83E+05); did not fit well to 1:1 model
Procedure: as §1, §2, §3

[12] = biological target: T2, Full length human CD40 (huCD40) on cells; assay: cell-based or functional assay; remark: listed apart in the source
Target sequence in this assay (P25942 21-277): as the sequence (P25942 21-277) above

[13] = biological target: T2, Full length human CD40 (huCD40) on cells; assay: flow cytometry, human mature DCs
Target sequence in this assay (P25942 21-277): as the sequence (P25942 21-277) above

[14] = biological target: T2, Full length human CD40 (huCD40) on cells; assay: flow cytometry, Raji cells
Target sequence in this assay (P25942 21-277): as the sequence (P25942 21-277) above

[15] = biological target: T2, Full length human CD40 (huCD40) on cells; assay: flow cytometry, human DCs
[16] = biological target: T4, human CD40 (SPR analyte); assay: SPR ProteOn XPR36, mAb captured by anti-human IgG Fc, CD40 as analyte, 25 C; mean of n = 5 (SD 0.97E-03); did not fit well to 1:1 model
Procedure: as §1, §2, §3

[17] = biological target: T2, Full length human CD40 (huCD40) on cells; assay: flow cytometry, human DCs; separate experiment
[18] = biological target: T2, Full length human CD40 (huCD40) on cells; assay: flow cytometry, human B cells
[19] = biological target: T1, cyno CD40 (SPR analyte); assay: SPR ProteOn XPR36, mAb captured by anti-human IgG Fc, cyno CD40 as analyte, 25 C; mean of n = 3 (SD 1.02E+05)
Procedure: as §1, §2

koff [1]: 0.00126 s⁻¹
EC50 [2]: 143 ng/mL
EC50, Human B cells (CD83) [3]: 0.766 ng/mL
EC50, Human B cells (CD83), separate experiment [3]: 0.145 ng/mL
EC50, Human DC (HLA-DR) [3]: 118 ng/mL
EC50, Human DC (HLA-DR), separate experiment [3]: 16.7 ng/mL
EC50, agonistic activity on HEK-Blue™ CD40L cells (NF-κB/SEAP) [3]: 13.8 ng/mL
EC50, agonistic activity on HEK-Blue™ CD40L cells (NF-κB/SEAP), separate experiment [3]: 6.21 ng/mL
EC50 [4]: 94.2 ng/mL
EC50 [5]: 45.1 ng/mL
DC EC50, CD80 surface expression, with cross-linker [6]: 27.7 ng/mL
DC EC50, CD83 surface expression, with cross-linker [6]: 39.8 ng/mL
DC EC50, CD86 surface expression, with cross-linker [6]: 103 ng/mL
DC EC50, HLA-DR surface expression, with cross-linker [6]: 79.7 ng/mL
Kd [7]: 4.09 nM
EC50 [8]: 615 ng/mL
Kd [9]: 1.42 nM
EC50 [10]: 19.1 ng/mL
kon [11]: 727000 M⁻¹ s⁻¹
B cells EC50, CD23 surface expression, with cross-linker [12]: 2.87 ng/mL
B cells EC50, CD80 surface expression, with cross-linker [12]: 13.1 ng/mL
B cells EC50, CD83 surface expression, with cross-linker [12]: 0.00668 ng/mL
B cells EC50, CD86 surface expression, with cross-linker [12]: 0.0109 ng/mL
B cells EC50, HLA-DR surface expression, with cross-linker [12]: 0.012 ng/mL
EC50 [13]: 123 ng/mL
EC50 [14]: 57.1 ng/mL
EC50 [15]: 152 ng/mL
koff [16]: 0.00285 s⁻¹
EC50 [17]: 46.2 ng/mL
EC50 [18]: 60.9 ng/mL
kon [19]: 901000 M⁻¹ s⁻¹
B1: C40M9 (antibody, human IgG1, lambda, V domains shown)
VH: QLQLQESGPGLVKPSEILSLTCTVSGGSISSSSYYWGWIRQPPGKGLEWIGNIYYRGDTYYSPSLKSRVTISVDTSKNQFSLKLNSVTAADTAVYYCAKGFRFDYWGQGTLVTVSS
VL: QSALTQPPSASGSPGQSVTISCTGTSSDVGGYNYVSWYQQHPGKAPKLMIYEVSKRPSGVPDRFSGSKSGNTASLTVSGLQAEDEADYYCSSYAGSNNLVFGGGTKLTVLG
